According to publication PMC3663649, “Nucleosomal DNA binding drives the recognition of H3K36-methylated nucleosomes by the PSIP1-PWWP domain” (Epigenetics & Chromatin, 2013):
Where two headings read alike, the source gives them in different places.

Legend:
[1] = test system: GST-PSIP1-PWWP (human); assay: EMSA; details: histone H3KC36me3 (methyl-lysine analogue); EMSA: 0.2X TBE, 4 C, 1.5 or 3 pmol nucleosome in 8 uL, up to 3 molar equivalents of protein, native 5% gel; NMR: 293 K (DNA titration), 308 K (nucleosome …)
[2] = test system: PSIP1-PWWP (human); assay: NMR methyl-TROSY line shape fit; details: 308 K; 1:2 nucleosome:PWWP model; koff 500 s-1; histone H3KC36me3 (methyl-lysine analogue); EMSA: 0.2X TBE, 4 C, 1.5 or 3 pmol nucleosome in 8 uL, up to 3 molar equivalents of protein, native 5% gel; NMR: 293 K (DNA titration), 308 K (nucleosome …)
[3] = biological target: H3KC36me3 nucleosomes (recombinant MLA nucleosomes reconstituted on 601 DNA) (Drosophila) (UniProt P02299)
[4] = test system: PSIP1-PWWP (human); assay: NMR titration (1H-15N HSQC CSP); details: EMSA: 0.2X TBE, 4 C, 1.5 or 3 pmol nucleosome in 8 uL, up to 3 molar equivalents of protein, native 5% gel; NMR: 293 K (DNA titration), 308 K (nucleosome …)
[5] = biological target: H3KC36me3 nucleosomes (recombinant MLA nucleosomes reconstituted on 601 DNA) (Drosophila) (UniProt P02299); assay: native gel or EMSA; 1.5 or 3 pmol reconstituted nucleosome with 0, 0.5, 1, 2 and 3 molar equivalents of glutathione agarose purified GST-PWWP protein; 0.2X TBE, 4°C, native 5% gel, ethidium bromide; band densities fitted to a 2:1 model
[6] = biological target: PSIP1-PWWP domain (residues 3 to 100, GST removed by thrombin) (human) (UniProt O75475); assay: NMR titration; 1H-15N HSQC of 0.3 mM PWWP, peptide added; 20 mM NaPi pH 7.0, 100 mM NaCl, 293 K, 600 MHz; chemical shift perturbation curves fitted in fast exchange
PSIP1-PWWP domain (residues 3 to 100, GST removed by thrombin) (human), sequence (O75475 3-100): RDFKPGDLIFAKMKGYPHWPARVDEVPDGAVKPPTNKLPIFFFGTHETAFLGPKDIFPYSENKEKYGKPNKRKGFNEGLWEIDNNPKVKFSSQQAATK

GST-PWWP (PSIP1-PWWP domain, residues 3 to 100, GST fusion), sequence (O75475 3-100): as above
PSIP1-PWWP domain (residues 3 to 100, GST removed by thrombin), sequence (O75475 3-100): as above

H3KC36me3 MLA nucleosome on 601 DNA
Kd [1]: 0.5 µM
Kd [2]: 1.5 µM

PSIP1-PWWP domain (residues 3 to 100, GST removed by thrombin) (from UniProt O75475 3-100) (domain or fragment)
Kd [3]: 1.5 µM

SRE-DNA dsDNA fragment
Kd [4]: 150 µM

GST-PWWP (PSIP1-PWWP domain, residues 3 to 100, GST fusion) (from UniProt O75475 3-100) (domain or fragment)
Kd [5]: 0.5 µM

H3KC36me3 peptide (NMR titration)
Kd [6]: 11000 µM
